Measured values as given in US7344856.
Entries after “also recorded” stand apart in the source; their conditions may differ.

Assays:
Dynorphine A, P01213 = biological target: T1, Dynorphine A, P01213
T1 chain: YGGFLRRIRPKLKWDNQ

[1] = biological target: fusion protein PRhANP, P01160
[2] = biological target: fusion protein PRhCT, P01258
[3] = biological target: fusion protein expressed by pG117S4HompRHKR

fusion protein PRhANP, P01160, sequence (P01160 other isoform, or with tags, fused parts or gaps): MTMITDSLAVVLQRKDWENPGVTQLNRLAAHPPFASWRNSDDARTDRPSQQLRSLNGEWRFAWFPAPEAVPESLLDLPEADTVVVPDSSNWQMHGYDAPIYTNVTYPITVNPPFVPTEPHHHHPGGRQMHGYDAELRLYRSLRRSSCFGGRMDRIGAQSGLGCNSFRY
fusion protein PRhCT, P01258, sequence (P01258 other isoform, or with tags, fused parts or gaps): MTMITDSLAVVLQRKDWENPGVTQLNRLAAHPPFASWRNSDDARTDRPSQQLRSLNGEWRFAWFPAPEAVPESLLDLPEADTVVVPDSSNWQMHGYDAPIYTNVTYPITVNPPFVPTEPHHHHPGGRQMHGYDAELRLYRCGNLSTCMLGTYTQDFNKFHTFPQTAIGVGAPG

B1: E. coli OmpT protease (purified OmpT protease specimen) (protein)
chain: STETLSFTPDNINADISLGTLSGKTKERVYLAEEGGRKVSQLDWKFNNAAIIKGAINWDLMPQISIGAAGWTTLGSRGGNMVDQDWMDSSNPGTWTDESRHPDTQLNYANEFDLNIKGWLLNEPNYRLGLMAGYQESRYSFTARGGSYIYSSEEGFRDDIGSFPNGERAIGYKQRFKMPYIGLTGSYRYEDFELGGTFKYSGWVESSDNDEHYDPGKRITYRSKVKDQNYYSVAVNAGYYVTPNAKVYVEGAWNRVTNKKGNTSLYDHNNNTSDYSKNGAGIENYNFITTAGLKYTF
- OmpT protease activity (cleavage of Dynorphine A, HPLC) (Dynorphine A, P01213): 40 U/ml
- cleavage by OmpT protease (SDS-PAGE) (fusion protein PKA): PKA and PKS forming no basic amino acid pair were cleaved by OmpT protease
- cleavage by OmpT protease (SDS-PAGE) (fusion protein PKD): PKD and PKE were not cleaved by OmpT protease
- cleavage by OmpT protease (SDS-PAGE) (fusion protein PKE): PKD and PKE were not cleaved by OmpT protease
- cleavage by OmpT protease (SDS-PAGE) (fusion protein PKK): PKK and PKR employed as positive controls were cleaved by OmpT protease
- cleavage by OmpT protease (SDS-PAGE) (fusion protein PKR): PKK and PKR employed as positive controls were cleaved by OmpT protease
- cleavage by OmpT protease (SDS-PAGE) (fusion protein PKS): PKA and PKS forming no basic amino acid pair were cleaved by OmpT protease
- cleavage efficiency by OmpT protease (fusion protein PRA): Alanine and serine were employed because they showed relatively high cleavage efficiency in Example 3; also recorded: Alanine and cysteine were selected because they provided relatively high cleavage efficiency in Example 3
- cleavage efficiency by OmpT protease (fusion protein PRC): Alanine and cysteine were selected because they provided relatively high cleavage efficiency in Example 3
- cleavage by OmpT protease (SDS-PAGE) (fusion protein PRD): In PRD and PRE, no cleavage by OmpT protease was observed
- cleavage by OmpT protease (SDS-PAGE) (fusion protein PRE): In PRD and PRE, no cleavage by OmpT protease was observed
- Relative amount of 4.9 kDa peptide (HPLC; 25 C, 60 min, pH 7.0) (relative to PRR = 100) (fusion protein PRR): 100
- Relative amount of 4.9 kDa peptide (HPLC; OmpT 0.1 U/ml, 25 C, 60 min) (relative to PRR = 100) (fusion protein PRR): 100
- Relative amount of 4.9 kDa peptide (HPLC; OmpT 2.0 U/ml, 25 C, 60 min) (relative to PRR = 100) (fusion protein PRR): 100
- cleavage by OmpT protease (SDS-PAGE) (fusion protein PRR): the cleavage by OmpT protease was confirmed in the fusion proteins other than PRR-1A
- cleavage by OmpT protease (SDS-PAGE; OmpT 0.1 U/ml) (fusion protein PRR): the cleavage by OmpT protease was observed in all of the fusion proteins
- cleavage by OmpT protease (SDS-PAGE; OmpT 2.0 U/ml) (fusion protein PRR): the cleavage by OmpT protease was observed in all of the fusion proteins
- Relative amount of 4.9 kDa peptide (HPLC; 25 C, 60 min, pH 7.0) (relative to PRR = 100) (fusion protein PRR-10A): 160
- cleavage by OmpT protease (SDS-PAGE) (fusion protein PRR-10A): the cleavage by OmpT protease was confirmed in the fusion proteins other than PRR-1A
- cleavage by OmpT protease (SDS-PAGE) (fusion protein PRR-1A): The PRR-1A was not cleaved by OmpT protease
- Relative amount of 4.9 kDa peptide (HPLC; 25 C, 60 min, pH 7.0) (relative to PRR = 100) (fusion protein PRR-2A): 150
- cleavage by OmpT protease (SDS-PAGE) (fusion protein PRR-2A): the cleavage by OmpT protease was confirmed in the fusion proteins other than PRR-1A
- Relative amount of 4.9 kDa peptide (HPLC; 25 C, 60 min, pH 7.0) (relative to PRR = 100) (fusion protein PRR-3A): 44
- cleavage by OmpT protease (SDS-PAGE) (fusion protein PRR-3A): the cleavage by OmpT protease was confirmed in the fusion proteins other than PRR-1A
- Relative amount of 4.9 kDa peptide (HPLC; 25 C, 60 min, pH 7.0) (relative to PRR = 100) (fusion protein PRR-4A): 24
- Relative amount of 4.9 kDa peptide (HPLC; OmpT 2.0 U/ml, 25 C, 60 min) (relative to PRR = 100) (fusion protein PRR-4A): 49
- cleavage by OmpT protease (SDS-PAGE) (fusion protein PRR-4A): the cleavage by OmpT protease was confirmed in the fusion proteins other than PRR-1A
- cleavage by OmpT protease (SDS-PAGE; OmpT 2.0 U/ml) (fusion protein PRR-4A): the cleavage by OmpT protease was observed in all of the fusion proteins
- Relative amount of 4.9 kDa peptide (HPLC; OmpT 2.0 U/ml, 25 C, 60 min) (relative to PRR = 100) (fusion protein PRR-4D): 2.8
- cleavage by OmpT protease (SDS-PAGE; OmpT 2.0 U/ml) (fusion protein PRR-4D): the cleavage by OmpT protease was observed in all of the fusion proteins
- Relative amount of 4.9 kDa peptide (HPLC; OmpT 2.0 U/ml, 25 C, 60 min) (relative to PRR = 100) (fusion protein PRR-4E): 2
- cleavage by OmpT protease (SDS-PAGE; OmpT 2.0 U/ml) (fusion protein PRR-4E): the cleavage by OmpT protease was observed in all of the fusion proteins
- Relative amount of 4.9 kDa peptide (HPLC; OmpT 2.0 U/ml, 25 C, 60 min) (relative to PRR = 100) (fusion protein PRR-4K): 96
- cleavage by OmpT protease (SDS-PAGE; OmpT 2.0 U/ml) (fusion protein PRR-4K): the cleavage by OmpT protease was observed in all of the fusion proteins
- Relative amount of 4.9 kDa peptide (HPLC; OmpT 2.0 U/ml, 25 C, 60 min) (relative to PRR = 100) (fusion protein PRR-4N): 48
- cleavage by OmpT protease (SDS-PAGE; OmpT 2.0 U/ml) (fusion protein PRR-4N): the cleavage by OmpT protease was observed in all of the fusion proteins
- Relative amount of 4.9 kDa peptide (HPLC; OmpT 2.0 U/ml, 25 C, 60 min) (relative to PRR = 100) (fusion protein PRR-4Q): 23
- cleavage by OmpT protease (SDS-PAGE; OmpT 2.0 U/ml) (fusion protein PRR-4Q): the cleavage by OmpT protease was observed in all of the fusion proteins
- Relative amount of 4.9 kDa peptide (HPLC; 25 C, 60 min, pH 7.0) (relative to PRR = 100) (fusion protein PRR-5A): 89
- cleavage by OmpT protease (SDS-PAGE) (fusion protein PRR-5A): the cleavage by OmpT protease was confirmed in the fusion proteins other than PRR-1A
- Relative amount of 4.9 kDa peptide (HPLC; 25 C, 60 min, pH 7.0) (relative to PRR = 100) (fusion protein PRR-6A): 330
- Relative amount of 4.9 kDa peptide (HPLC; OmpT 0.1 U/ml, 25 C, 60 min) (relative to PRR = 100) (fusion protein PRR-6A): 310
- cleavage by OmpT protease (SDS-PAGE) (fusion protein PRR-6A): the cleavage by OmpT protease was confirmed in the fusion proteins other than PRR-1A
- cleavage by OmpT protease (SDS-PAGE; OmpT 0.1 U/ml) (fusion protein PRR-6A): the cleavage by OmpT protease was observed in all of the fusion proteins
- Relative amount of 4.9 kDa peptide (HPLC; OmpT 0.1 U/ml, 25 C, 60 min) (relative to PRR = 100) (fusion protein PRR-6D): 110
- cleavage by OmpT protease (SDS-PAGE; OmpT 0.1 U/ml) (fusion protein PRR-6D): the cleavage by OmpT protease was observed in all of the fusion proteins
- Relative amount of 4.9 kDa peptide (HPLC; OmpT 0.1 U/ml, 25 C, 60 min) (relative to PRR = 100) (fusion protein PRR-6K): 1400
- cleavage by OmpT protease (SDS-PAGE; OmpT 0.1 U/ml) (fusion protein PRR-6K): the cleavage by OmpT protease was observed in all of the fusion proteins
- Relative amount of 4.9 kDa peptide (HPLC; OmpT 0.1 U/ml, 25 C, 60 min) (relative to PRR = 100) (fusion protein PRR-6N): 430
- cleavage by OmpT protease (SDS-PAGE; OmpT 0.1 U/ml) (fusion protein PRR-6N): the cleavage by OmpT protease was observed in all of the fusion proteins
- Relative amount of 4.9 kDa peptide (HPLC; OmpT 0.1 U/ml, 25 C, 60 min) (relative to PRR = 100) (fusion protein PRR-6Q): 390
- cleavage by OmpT protease (SDS-PAGE; OmpT 0.1 U/ml) (fusion protein PRR-6Q): the cleavage by OmpT protease was observed in all of the fusion proteins
- Relative amount of 4.9 kDa peptide (HPLC; OmpT 0.1 U/ml, 25 C, 60 min) (relative to PRR = 100) (fusion protein PRR-6R): 1000
- cleavage by OmpT protease (SDS-PAGE; OmpT 0.1 U/ml) (fusion protein PRR-6R): the cleavage by OmpT protease was observed in all of the fusion proteins
- Relative amount of 4.9 kDa peptide (HPLC; 25 C, 60 min, pH 7.0) (relative to PRR = 100) (fusion protein PRR-8A): 200
- cleavage by OmpT protease (SDS-PAGE) (fusion protein PRR-8A): the cleavage by OmpT protease was confirmed in the fusion proteins other than PRR-1A
- Relative amount of 4.9 kDa peptide (HPLC; 25 C, 60 min, pH 7.0) (relative to PRR = 100) (fusion protein PRR-9A): 160
- cleavage by OmpT protease (SDS-PAGE) (fusion protein PRR-9A): the cleavage by OmpT protease was confirmed in the fusion proteins other than PRR-1A
- cleavage efficiency by OmpT protease (fusion protein PRS): Alanine and serine were employed because they showed relatively high cleavage efficiency in Example 3
- cleavage by OmpT protease (SDS-PAGE) [1]: PRhANP was cleaved by OmpT protease
- cleavage by OmpT protease (SDS-PAGE) [2]: PRhCT was not cleaved thereby
- cleavage at sites inside the α-hANP moiety (fusion protein RAhANP): arginine-arginine alone was slightly cleaved, among the four sites (arginine-arginine, arginine-methionine, arginine-isoleucine and arginine-tyrosine) existing in α-hANP molecule ... while the other bonds were scarcely cleaved
- cleavage by OmpT protease (SDS-PAGE) (fusion protein RAhANP): cleavage by OmpT protease was observed in RRhANP, RAhANP and RChANP
- cleavage at sites inside the α-hANP moiety (fusion protein RChANP): arginine-arginine alone was slightly cleaved, among the four sites (arginine-arginine, arginine-methionine, arginine-isoleucine and arginine-tyrosine) existing in α-hANP molecule ... while the other bonds were scarcely cleaved
- cleavage by OmpT protease (SDS-PAGE) (fusion protein RChANP): cleavage by OmpT protease was observed in RRhANP, RAhANP and RChANP
- cleavage at sites inside the α-hANP moiety (fusion protein RRhANP): arginine-arginine alone was slightly cleaved, among the four sites (arginine-arginine, arginine-methionine, arginine-isoleucine and arginine-tyrosine) existing in α-hANP molecule ... while the other bonds were scarcely cleaved
- cleavage by OmpT protease (SDS-PAGE) (fusion protein RRhANP): cleavage by OmpT protease was observed in RRhANP, RAhANP and RChANP
- cleavage by OmpT protease (SDS-PAGE) (fusion protein RShANP): it was confirmed that RShANP could be cleaved by OmpT protease
- relative amount of the released α-hANP (HPLC peak at 4.7 minutes; OmpT 2.0 U/ml, 25 C, 90 min) (fusion protein RShANPR): 2.2 times as much as that of RShANP
- cleavage by OmpT protease (preliminary experiments) [3]: this fusion protein is cleaved at two sites when treated with OmpT protease
